These results are taken from patent US20240043506A1 (GARVAN INSTITUTE OF MEDICAL RESEARCH, published 2024).

The target in this test is SARS-CoV-2 S protein RBD (residues 319-541 of the S protein), soluble, with C-terminal Avitag and His tag (SARS-CoV-2, UniProt P0DTC2 319-541).

B1: O4C12 (antibody, V domains shown)
VH: EVQLLESGGGLVQPGGSLRLSCAASGFRISDEDMGWVRQAPGKGLEWVSYIDNAGASTYYADSVKGRFTISRDNSKNTLYLQMNSLRAEDTAVYYCAKQINQGEGFDYWGQGTLVTVSS
VL: DIQMTQSPSSLSASVGDRVTITCRASQSISSYLNWYQQKPGKAPKLLIYYASNLQSGVPSRFSGSGSGTDFTLTISSLQPEDFATYYCQQGLGMPITFGQGTKVEIK
By Kd is commonly meant the constant that tells how readily two partners part at equilibrium. Lower therefore signals tighter binding. B1 displayed a Kd of 23 nM.

B2: O4G1 (antibody, V domains shown)
VH: EVQLLESGGGLVQPGGSLRLSCAASGFRFDYEDMGWVRQAPGKGLEWVSSIDSHGASTYYADSVKGRFTISRDNSKNTLYLQMNSLRAEDTAVYYCAKYSHSVSYGPFDYWGQGTLVTVSS
VL: DIQMTQSPSSLSASVGDRVTITCRASQYIYDDLNWYQQKPGKAPKLLIYSASSLQSGVPSRFSGSGSGTDFTLTISSLQPEDFATYYCQQTNTYPQTFGQGTKVEIK
In the case of B2, the Kd was 19 nM.
